From patent US20260022165A1 (US Dept. of Health and Human Services, published 2026)

Key:
hFc-hC3d fusion protein = molecular target: T1, hFc-hC3d fusion protein (human, UniProt P01024 1002-1303, limits assumed); experiment: SPR (Biacore X100), Fab over captured hFc-hC3d
T1 construct: domain: C3d; also called immobilized hC3d; not shown: human IgG Fc (hFc), captured by an anti-human IgG CH2 / Fcγ mAb
Description: (§1) Kinetic and thermodynamic parameters characterizing the binding of purified Fabs to hC3d or mC3d was performed by surface plasmon resonance (SPR) in a Biacore X100 instrument (GE Healthcare). Using mouse anti-human IgG CH2 mAb immobilized on a CM5 sensor chip, hFc-hC3d or hFc-mC3d fusion proteins were captured at a density <400 RU. Each sensor chip included an empty flow cell for instantaneous background subtraction. All binding assays used 1×HBS-EP+ running buffer (10 mM HEPES, 150 mM NaCl, 3 mM EDTA (pH 7.4), and 0.05% (v/v) Surfactant P20) at a flow rate of 30 μL/min. […] Calculation of association (kₒₙ) and dissociation (koff) rate constants were based on a 1:1 Langmuir binding model. The equilibrium dissociation constant (KD) was obtained by the formula KD=koff/kₒₙ.

hFc-mC3d fusion protein = molecular target: T2, hFc-mC3d fusion protein (human; mouse, UniProt P01027 1002-1303, limits assumed); experiment: SPR (Biacore X100), Fab over captured hFc-mC3d
T2 construct: domain: C3d; not shown: human IgG Fc (hFc), captured by an anti-human IgG CH2 mAb
Description: as §1

[1] = molecular target: T3, full length human C3 present in plasma (human, UniProt P01024 23-1663); experiment: ELISA, competition; His-tagged Fab (1 ug/mL) on zymosan opsonized with human C3 fragments in the presence of normal human serum (printed PNHCS) at 1/10, 1/50, 1/250 as source of full-length C3; normalized to media without serum
T3 construct: mature; Not purified: it stood in the assay as dilutions of normal human serum; also called full-length, soluble C3; C3 in NHS
Description: Zymosan particles opsonized with human C3 fragments were suspended in media with indicated dilutions of NHS (1/10, 1/50 and 1/250) prior to addition of His-tagged anti-C3d Fab antibodies at 1 μg/mL. Mouse anti-His mAb conjugated with HRP was used to determine the binding signal of each Fab by ELISA. Data is normalized to media control containing no NHS.
(§2) C3-opsonized zymosan particles (1e6) were incubated with 100 μL of 1 ug/mL His-tagged Fabs in a 96-well V-bottom plate at 37° C. for 1 h. After three washes with PBST (0.05% v/v Tween 20 in PBS), 100 μL of mouse anti-His tag mAb conjugated to horse radish peroxidase (HRP) (R&D Systems, Minneapolis, MN) at 1:1000 dilution in 1% (w/v) BSA/DPBS was added to detect bound Fabs using 2,2′-azino-bis (3-ethylbenzthiazoline)-6-sulfonic acid (Roche/Milipore Sigma, St. Louis, MO) as substrate. The absorbance was measured at 405 nm using a SpectraMax M5 microplate reader and SoftMax Pro software (Molecular Devices, LLC, San Jose, CA). To test for the potential of C3 in NHS to block binding of the mAbs to C3-fragment opsonized zymosan, serial dilutions of NHS were premixed with the opsonized zymosan particles prior to addition of his-tagged Fabs and following the procedure described above.

[2] = molecular target: T4, human complement protein C3d (human, UniProt P01024 1002-1303); experiment: flow cytometry; His-tagged Fab on zymosan particles opsonized with human serum (C3b/iC3b/C3d); detection AF488 mouse anti-His mAb
T4 construct: domain: C3d; the 30 min deposits on zymosan are a mixture of C3b/iC3b/C3d that the text calls C3d; also called hC3d; human C3d
Description: as §2
The binding of rabbit antibodies (Fabs) was detected by flow cytometry following the same procedure described above except using a mouse anti-His tag mAb conjugated to AF488 (Qiagen, Valencia, CA).

T2 sequence (P01027 1002-1303 limits assumed): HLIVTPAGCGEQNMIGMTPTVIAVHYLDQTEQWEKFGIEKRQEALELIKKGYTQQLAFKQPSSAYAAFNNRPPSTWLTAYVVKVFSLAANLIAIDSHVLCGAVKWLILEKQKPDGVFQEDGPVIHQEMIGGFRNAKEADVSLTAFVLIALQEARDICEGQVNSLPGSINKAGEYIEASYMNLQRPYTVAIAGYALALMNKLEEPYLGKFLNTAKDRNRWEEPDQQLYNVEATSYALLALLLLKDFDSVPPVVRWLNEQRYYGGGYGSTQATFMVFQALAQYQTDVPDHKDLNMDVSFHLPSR

Binder	Kd (hFc-hC3d fusion protein)	koff (hFc-hC3d fusion protein)	kon (hFc-hC3d fusion protein)	Kd (hFc-mC3d fusion protein)	koff (hFc-mC3d fusion protein)	kon (hFc-mC3d fusion protein)	binding result [1]	binding result [2]
Ab3 Fab (His-tagged rabbit/human chimeric anti-C3d Fab) (Fab, V domains shown, Fab with rabbit Vκ/human Cκ/rabbit VH, His-tagged; also called Ab3 (κ)) VH: QKQLVESGGRLVTPGGSLTLTCTISGIDLNTYGMTWVRQAPGKGLEYIGIIVSSGNTYYANWAQGRFTISKTSTTVDLKMTSLTASDTATYFCARGLGRAYSSGYGMDGWGPGTLVTVSS VL: DPVLTQTPSSTSAAVGGTVTIKCQASQNIYTSLAWYQQKPGQPPKLLIYGASNLASGVPSRFKGSRSGTEYTLTISGVEREDAATYYCLGSYTQIDTTFGGGTKLEIK	13.3 nM	0.00126 s⁻¹	94600 M⁻¹ s⁻¹	97.6 nM	0.0227 s⁻¹	232000 M⁻¹ s⁻¹	–	–
Ab5 Fab (His-tagged rabbit/human chimeric anti-C3d Fab) (Fab, V domains shown, Fab with rabbit Vκ/human Cκ/rabbit VH, His-tagged; also called Ab5 (κ)) VH: QSLEESGGRLVTPGTPLTLTCTVSGFSLSTYTLGWVRQAPGKGLEYIGWIDSSGSAYYASWAKGRFTISKASSTTVDLKMAGLTTEDTATYFCASGNTGGDPLYYGMDPWGPGTLVTVSS VL: DPVLTQTPSSTSAAVGGTVTIKCQASQNIGRWLAWYQQKPGQPPKLLIYRASDLASGVPSRFKGSGSGTQFTLTISGVQREDAATYYCLGSYSSSDSAFGGGTEVVVK	0.99 nM	0.00014 s⁻¹	141000 M⁻¹ s⁻¹	22.9 nM	0.00568 s⁻¹	248000 M⁻¹ s⁻¹	–	–
Ab4 Fab (His-tagged rabbit/human chimeric anti-C3d Fab) (Fab, V domains shown, Fab with rabbit Vκ/human Cκ/rabbit VH, His-tagged; also called Ab4 (κ)) VH: QSLEESGGRLVTPGTPLTLTCTVSGFSLSRYTMAWVRQAPGKGLEYIGWIDSSGSTYYASWAKGRFTISKTSSTTVDLKMTSLTTEDTATYFCASGNDGGDPLYYGMDPWGPGTLVTVSS VL: DGVMTQTPSSTSAAVGGTVTIKCQASQSIRSWLSWYQQKPGQPPKLLIYEASKLASGVPSRFKGSRSGTEYTLAISGVQREDAATYYCLGSIASDDTAFGAGTNVEIK	3.1 nM	0.00028 s⁻¹	90900 M⁻¹ s⁻¹	132 nM	0.00801 s⁻¹	60600 M⁻¹ s⁻¹	–	–
Ab1 Fab (His-tagged rabbit/human chimeric anti-C3d Fab) (Fab, V domains shown, Fab from the phage display vector pC3C with rabbit Vλ/human Cλ/rabbit VH, His-tagged; also called Ab1 (λ)) VH: QSVEESRGRLVTPGTPLTLTCTVSGIDLSSSAITWVRQAPGKGLEWIGMISTDGATYYANWAKGRFTFSKTSTTADLKITSPTTEDTATYFCARGLTNFSIWGPGTLVTVSS VL: QPVLTQSPSASAALGASAKLTCTLSSAHKTYTIAWYQQQPGESPRYLMLLKSDGSYTRGPGVPDRFSGSSSGADRYLIIPSVQADDEAGYYCGADYNGGYVFGGGTQLTVTG	–	–	–	–	–	–	no binding (tested: serum dilution 1/10)	binds
Ab2 Fab (His-tagged rabbit/human chimeric anti-C3d Fab) (Fab, V domains shown, Fab with rabbit Vκ/human Cκ/rabbit VH, His-tagged; also called Ab2 (κ)) VH: QSVEESGGRLVTPGTPLTLTCTVSGFSLSSYAMTWVRQAPGKGLEWIGVIGTSGMRYYANWAKGRFTISKTSTTVDLKITSPTTEDTATYFCARANFYVGNDESTDAFDPWGPGTLVTVSS VL: ALVMTQTPPSLSASVGETVRIRCLASEDIYNTISWYQQKPGKPPTLLIYGASNLKSGVPPRFSGSGSGTDYTLTIGGVQSEDAATYYCLGGYSYSSTGLTFGAGTKVEIK	3.35 nM	0.00054 s⁻¹	162000 M⁻¹ s⁻¹	9.04 nM	0.00174 s⁻¹	193000 M⁻¹ s⁻¹	–	–
